This note sets out measurements from PMC4787775, “Molecular basis for the substrate specificity and catalytic mechanism of thymine-7-hydroxylase in fungi” (Nucleic Acids Research, 2015).

B1: NcT7H (thymine-7-hydroxylase) (Neurospora crassa OR74A; R286A) (protein)
chain: MEKAAVNEDGLVIPLIDFSKFLEGDETLKLETAKAILHGFQTAGFIYLKNIPIQPDFREHVFNTSAKFFKLPKEKKLEVGWTTPEANRGYSAPGREKVTQLTDPAEIEKIRSAAPDIKESYEIGREDEPGHPNPWPAEQDDLVGFKSTMNNFFDQCKALHIEVMRAIAVGMGIDANYFDSFVDVGDNILRLLHYPAVKSEVFKINPGQVRAGEHTDYGSITLLFQDSRGGLQVKSPNGQFIDATPIENTVVVNAGDLLARWSNDTIKSTVHRVVEPPKQEDVHPPAYSIAYFCNPNHKSYIEAIPGTYAAESERKYEGINSGKYLVQRLAATY
notes: full length (residues 1-333), C-terminal His6-tag, pET-28a, expressed in E. coli BL21(DE3); Ni-NTA and gel filtration, tag removal not mentioned
B2: NcT7H (thymine-7-hydroxylase) (Neurospora crassa OR74A) (protein)
chain: B1 chain with A286R
notes: as for B1
B3: NcT7H (thymine-7-hydroxylase) (Neurospora crassa OR74A; R190K) (protein)
chain: B1 chain with R190K, A286R
notes: as for B1
B4: NcT7H (thymine-7-hydroxylase) (Neurospora crassa OR74A; N87A) (protein)
chain: B1 chain with N87A, A286R
notes: as for B1
B5: NcT7H (thymine-7-hydroxylase) (Neurospora crassa OR74A; Y217F) (protein)
chain: B1 chain with Y217F, A286R
notes: as for B1
B6: NcT7H (thymine-7-hydroxylase) (Neurospora crassa OR74A; Y217A) (protein)
chain: B1 chain with Y217A, A286R
notes: as for B1

Where a chain is given by its changes, count along the chain named. In names and notes the source's numbering stands.

T1 sequence (Q7RYZ9 entry or part of it): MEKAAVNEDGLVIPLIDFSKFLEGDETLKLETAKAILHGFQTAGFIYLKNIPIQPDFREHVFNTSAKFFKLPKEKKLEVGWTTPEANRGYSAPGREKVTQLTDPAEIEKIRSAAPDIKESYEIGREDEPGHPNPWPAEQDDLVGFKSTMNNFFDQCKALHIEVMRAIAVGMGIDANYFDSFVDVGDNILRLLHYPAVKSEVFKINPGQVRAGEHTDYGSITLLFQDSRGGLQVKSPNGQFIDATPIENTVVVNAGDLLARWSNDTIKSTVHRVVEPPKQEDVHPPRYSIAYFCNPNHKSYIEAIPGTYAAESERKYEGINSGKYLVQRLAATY

Substrate in one data set: O=c1[nH]cc(CO)c(=O)[nH]1
Nature of the data set: purified protein. The settings on record: 1 mM α-KG, 0.2 mM (NH4)2Fe(SO4)2, 0.2 mM ascorbic acid, 100 mM Hepes pH 7.5, 25 °C.
For the molecule B1, the Km stood at 950 ± 114 µM, the kcat came to 0.141 s⁻¹ and the kcat/Km stood at 150 M⁻¹ s⁻¹.

As to B2, the Km amounted to 178 ± 16.4 µM, the kcat amounted to 0.325 s⁻¹ and the kcat/Km is 1830 M⁻¹ s⁻¹.

As for B3, the Km was 1016 ± 200 µM, the kcat was 0.0353 s⁻¹ and the kcat/Km worked out at 33.3 M⁻¹ s⁻¹.

As to B4, the Km was 1065 ± 156 µM, the kcat came out at 0.0962 s⁻¹ and the kcat/Km came to 83.3 M⁻¹ s⁻¹.

For B5, the Km stood at 247 ± 35.2 µM, the kcat amounted to 0.553 s⁻¹ and the kcat/Km was determined as 2230 M⁻¹ s⁻¹.

A further data set concerns the target T1, NcT7H (thymine-7-hydroxylase) (Neurospora crassa, UniProt Q7RYZ9).
T1 construct: gene NCU06416; full length (residues 1-333), C-terminal His6-tag, pET-28a, expressed in E. coli BL21(DE3); Ni-NTA and gel filtration, tag removal not mentioned
As to the kind of experiment: isothermal titration calorimetry.
Conditions: not given
It counts as binding. The text has this: isothermal titration calorimetry on NcT7H (thymine-7-hydroxylase)
Turning to `Cc1c[nH]c(=O)[nH]c1=O` [T], the dissociation constant (Kd) was determined as 32 ± 5.24 µM.

Consider `O=C(O)CNC(=O)C(=O)O` [NOG], for which the Kd amounted to 5.35 ± 1.26 µM.

In turn, `O=C(O)CCC(=O)C(=O)O` [α-KG] showed a Kd of 34.4 ± 6.63 µM.

As to `O=Cc1c[nH]c(=O)[nH]c1=O` [5fU], binding was put at a Kd of 108 ± 13 µM.

`O=c1[nH]cc(CO)c(=O)[nH]1` [5hmU] came in with a Kd of 30.5 ± 5.59 µM.

Substrate in another data set: Cc1c[nH]c(=O)[nH]c1=O
Nature of the data set: purified protein. The settings on record: 1 mM α-KG, 0.2 mM (NH4)2Fe(SO4)2, 0.2 mM ascorbic acid, 100 mM Hepes pH 7.5, 25 °C. It counts as biochemical, Neurospora crassa.
For B1, the Km turned out to be 649 ± 74.1 µM, the kcat is 0.405 ± 0.0215 s⁻¹ and the kcat/Km was determined as 617 M⁻¹ s⁻¹.

On to B2, for which the Km was 141 ± 13.4 µM, the kcat was determined as 0.417 ± 0.0123 s⁻¹ and the kcat/Km came out at 2950 M⁻¹ s⁻¹.

Regarding B3, the Km was found to be 542 ± 64.7 µM, the kcat came to 0.055 ± 0.003 s⁻¹ and the specificity constant (kcat/Km) was determined as 100 M⁻¹ s⁻¹.

With B4, the Km was determined as 638 ± 128 µM, the kcat amounted to 0.23 ± 0.022 s⁻¹ and the kcat/Km was found to be 367 M⁻¹ s⁻¹.

On to B5, for which the Michaelis constant (Km) is 128 ± 18.5 µM, the catalytic constant (kcat) amounted to 0.542 ± 0.0228 s⁻¹ and the kcat/Km was 4230 M⁻¹ s⁻¹.

For the molecule B6, the Michaelis constant (Km) is 1500 ± 332 µM, the kcat is 0.257 ± 0.0355 s⁻¹ and the kcat/Km was 167 M⁻¹ s⁻¹.

Substrate in another data set: O=Cc1c[nH]c(=O)[nH]c1=O
As to the kind of experiment: purified protein. It is filed as biochemical, Neurospora crassa. The settings on record: 1 mM α-KG, 0.2 mM (NH4)2Fe(SO4)2, 0.2 mM ascorbic acid, 100 mM Hepes pH 7.5, 25 °C.
For the molecule B2, the Km turned out to be 253 ± 32.2 µM, the kcat is 0.765 ± 0.0357 s⁻¹ and the kcat/Km amounted to 3020 M⁻¹ s⁻¹.

Take B5: the Km was found to be 718 ± 213 µM, the kcat stood at 0.237 ± 0.0352 s⁻¹ and the kcat/Km was 333 M⁻¹ s⁻¹.
